# According to the supplement of paper PMC10567573:
# B1: TRAF3IP2 (parent)
# chain: KEHVPTWLQNTHVYSWPKNKKNIL
# B2: ZBED3 (parent)
# chain: GPGFHAGTSALWRHLRSAHRRELE
# Variants of: B1
# Assay: protein stability index of a GFP-peptide fusion (GPS, HEK-293T) (PSI 1-6); higher = more stable
# Conditions: c terminus: a fixed tail appended
# 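Further: lentivirally expressed fusions sorted by FACS into six bins by GFP to DsRed ratio, PSI derived from sequencing read proportions per bin multiplied by bin number.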
row,Variant,protein stability index
1,PEHVPTWLQNTHVYSWPKNKKNIL,1.97
2,EEHVPTWLQNTHVYSWPKNKKNIL,3.06
3,REHVPTWLQNTHVYSWPKNKKNIL,2.42
4,MEHVPTWLQNTHVYSWPKNKKNIL,2.33
5,FEHVPTWLQNTHVYSWPKNKKNIL,1.69
6,GEHVPTWLQNTHVYSWPKNKKNIL,3.22
7,VEHVPTWLQNTHVYSWPKNKKNIL,2.78
8,DEHVPTWLQNTHVYSWPKNKKNIL,2.93
9,LEHVPTWLQNTHVYSWPKNKKNIL,2.56
10,YEHVPTWLQNTHVYSWPKNKKNIL,1.93
11,WEHVPTWLQNTHVYSWPKNKKNIL,1.98
12,SEHVPTWLQNTHVYSWPKNKKNIL,2.76
13,TEHVPTWLQNTHVYSWPKNKKNIL,2.71
14,HEHVPTWLQNTHVYSWPKNKKNIL,2.58
15,AEHVPTWLQNTHVYSWPKNKKNIL,3.11
16,IEHVPTWLQNTHVYSWPKNKKNIL,1.94
17,NEHVPTWLQNTHVYSWPKNKKNIL,3.12
18,QEHVPTWLQNTHVYSWPKNKKNIL,2.67
19,CEHVPTWLQNTHVYSWPKNKKNIL,2.26
20,KDHVPTWLQNTHVYSWPKNKKNIL,2.47
21,KCHVPTWLQNTHVYSWPKNKKNIL,1.54
22,KAHVPTWLQNTHVYSWPKNKKNIL,1.94
23,KFHVPTWLQNTHVYSWPKNKKNIL,1.7

# Variants of: B2
# Assay: as above
# Conditions: c terminus: a fixed tail appended
row,Variant,protein stability index
1,GPGFHAGTSALWRHLRQAHRRELE,2.03
2,GPGFHAGTSALWRHLRGAHRRELE,2.6
3,GPGFHAGTSALWRHLRLAHRRELE,3.44
4,GPGFHAGTSALWRHLRMAHRRELE,2.25
5,GPGFHAGTSALWRHLRRAHRRELE,2.42
6,GPGFHAGTSALWRHLRIAHRRELE,2.17
7,GPGFHAGTSALWRHLRAAHRRELE,2.14
8,GPGFHAGTSALWRHLRKAHRRELE,2.51
9,GPGFHAGTSALWRHLRPAHRRELE,1.9
10,GPGFHAGTSALWRHLRNAHRRELE,1.69
11,GPGFHAGTSALWRHLRTAHRRELE,2.65
12,GPGFHAGTSALWRHLRYAHRRELE,2.38
13,GPGFHAGTSALWRHLRCAHRRELE,1.56
14,GPGFHAGTSALWRHLRWAHRRELE,3.17
15,GPGFHAGTSALWRHLREAHRRELE,2.78
16,GPGFHAGTSALWRHLRFAHRRELE,2.25
17,GPGFHAGTSALWRHLRDAHRRELE,2.9
18,GPGFHAGTSALWRHLRHAHRRELE,1.85
19,GPGFHAGTSALWRHLRVAHRRELE,1.94
20,GPGFHAGTSALWRHLRSWHRRELE,1.63
21,GPGFHAGTSALWRHLRSGHRRELE,1.89
22,GPGFHAGTSALWRHLRSQHRRELE,2.61
23,GPGFHAGTSALWRHLRSLHRRELE,2.79
24,GPGFHAGTSALWRHLRSRHRRELE,3.02

row,Variant,protein stability index
1,GPGFHAGTSALWRHLRSVHRRELE,1.99
2,GPGFHAGTSALWRHLRSSHRRELE,1.88
3,GPGFHAGTSALWRHLRSKHRRELE,2.81
4,GPGFHAGTSALWRHLRSCHRRELE,1.79
5,GPGFHAGTSALWRHLRSDHRRELE,2.02
6,GPGFHAGTSALWRHLRSFHRRELE,2.07
7,GPGFHAGTSALWRHLRSTHRRELE,2.47
8,GPGFHAGTSALWRHLRSHHRRELE,2.04
9,GPGFHAGTSALWRHLRSYHRRELE,1.85
10,GPGFHAGTSALWRHLRSEHRRELE,3.1
11,GPGFHAGTSALWRHLRSIHRRELE,2.12
12,GPGFHAGTSALWRHLRSPHRRELE,3.65
13,GPGFHAGTSALWRHLRSNHRRELE,2.45
14,GPGFHAGTSALWRHLRSMHRRELE,1.77
15,GPGFHAGTSALWRHLSSAHRRELE,2.21
16,GPGFHAGTSALWRHLLSAHRRELE,1.81
17,GPGFHAGTSALWRHLPSAHRRELE,2.33
18,GPGFHAGTSALWRHLMSAHRRELE,2.97
19,GPGFHAGTSALWRHLVSAHRRELE,1.84
20,GPGFHAGTSALWRHLQSAHRRELE,2.33
21,GPGFHAGTSALWRHLISAHRRELE,2.12
22,GPGFHAGTSALWRHLKSAHRRELE,2.41
23,GPGFHAGTSALWRHLYSAHRRELE,1.75
24,GPGFHAGTSALWRHLHSAHRRELE,2.17

row,Variant,protein stability index
1,GPGFHAGTSALWRHLWSAHRRELE,1.66
2,GPGFHAGTSALWRHLNSAHRRELE,2.34
3,GPGFHAGTSALWRHLGSAHRRELE,1.73
4,GPGFHAGTSALWRHLTSAHRRELE,2.23
5,GPGFHAGTSALWRHLRSAHRRILE,1.95
6,GPGFHAGTSALWRHLRSAHRRMLE,2.38
7,GPGFHAGTSALWRHLRSAHRRTLE,2.23
8,GPGFHAGTSALWRHLRSAHRRWLE,2.25
9,GPGFHAGTSALWRHLRSAHRRSLE,2.17
10,GPGFHAGTSALWRHLRSAHRRFLE,2.43
11,GPGFHAGTSALWRHLRSAHRRQLE,1.72
12,GPGFHAGTSALWRHLRSAHRRNLE,1.95
13,GPGFHAGTSALWRHLRSAHRRPLE,1.77
14,GPGFHAGTSALWRHLRSAHRRCLE,2.08
15,GPGFHAGTSALWRHLRSAHRRDLE,2.06
16,GPGFHAGTSALWRHLRSAHRRALE,2.76
17,GPGFHAGTSALWRHLRSAHRRVLE,2.44
18,GPGFHAGTSALWRHLRSAHRRRLE,2.38
19,GPGFHAGTSALWRHLRSAHRRLLE,2.4
20,GPGFHAGTSALWRHLRSAHRRKLE,1.97
21,GPGFHAGTSALWRHLRSAHRRYLE,1.47
22,GPGFHAGTSALWRHLRSAHRRHLE,3.09
23,GPGFHAGTSALWRHLRSAHFRELE,2.36
24,GPGFHAGTSALWRHLRSAHNRELE,1.4

row,Variant,protein stability index
1,GPGFHAGTSALWRHLRSAHGRELE,2.23
2,GPGFHAGTSALWRHLRSAHLRELE,1.59
3,GPGFHAGTSALWRHLRSAHSRELE,1.86
4,GPGFHAGTSALWRHLRSAHMRELE,2.17
5,GPGFHAGTSALWRHLRSAHHRELE,1.37
6,GPGFHAGTSALWRHLRSAHARELE,1.82
7,GPGFHAGTSALWRHLRSAHQRELE,2.31
8,GPGFHAGTSALWRHLRSAHTRELE,1.92
9,GPGFHAGTSALWRHLRSAHYRELE,1.62
10,GPGFHAGTSALWRHLRSAHIRELE,1.74
11,GPGFHAGTSALWRHLRSAHVRELE,2.06
12,GPGFHAGTSALWRHLRSAHWRELE,2.83
13,GPGFHAGTSALWRHLRSAHERELE,2.08
14,GPGFHAGTSALWRHLRSAHKRELE,2.54
15,GPGFHAGTSALWRHLRSAHDRELE,2.01
16,GPGFHAGTSALWRHLRSAHCRELE,2.27
17,GPGFHAGTSALWRHLRSAHPRELE,2.54
18,GPGFHAGTSALWRHLRSAHRYELE,2.14
19,GPGFHAGTSALWRHLRSAHRDELE,2.35
20,GPGFHAGTSALWRHLRSAHREELE,2.33
21,GPGFHAGTSALWRHLRSAHRIELE,1.97
22,GPGFHAGTSALWRHLRSAHRCELE,4.08
23,GPGFHAGTSALWRHLRSAHRVELE,1.53
24,GPGFHAGTSALWRHLRSAHRKELE,2.51

row,Variant,protein stability index
1,GPGFHAGTSALWRHLRSAHRMELE,1.9
2,GPGFHAGTSALWRHLRSAHRPELE,1.95
3,GPGFHAGTSALWRHLRSAHRAELE,1.7
4,GPGFHAGTSALWRHLRSAHRGELE,1.75
5,GPGFHAGTSALWRHLRSAHRLELE,1.77
6,GPGFHAGTSALWRHLRSAHRQELE,2.52
7,GPGFHAGTSALWRHLRSAHRHELE,1.73
8,GPGFHAGTSALWRHLRSAHRTELE,2.49
9,GPGFHAGTSALWRHLRSAHRFELE,1.02
10,GPGFHAGTSALWRHLRSAHRSELE,1.84
11,GPGFHAGTSALWRHLRSAHRNELE,1.77
12,GPGFHAGTSALWRHLRSAHRWELE,2.07
13,GPGFHAGTSALWRHLRSAHRRENE,2.03
14,GPGFHAGTSALWRHLRSAHRREHE,2.37
15,GPGFHAGTSALWRHLRSAHRREVE,1.92
16,GPGFHAGTSALWRHLRSAHRRETE,1.97
17,GPGFHAGTSALWRHLRSAHRREAE,2.83
18,GPGFHAGTSALWRHLRSAHRRECE,2.14
19,GPGFHAGTSALWRHLRSAHRREFE,2.11
20,GPGFHAGTSALWRHLRSAHRREPE,1.98
21,GPGFHAGTSALWRHLRSAHRREGE,2.32
22,GPGFHAGTSALWRHLRSAHRREWE,1.88
23,GPGFHAGTSALWRHLRSAHRREQE,2.13
24,GPGFHAGTSALWRHLRSAHRREKE,2.79

row,Variant,protein stability index
1,GPGFHAGTSALWRHLRSAHRREME,2.32
2,GPGFHAGTSALWRHLRSAHRREIE,2.19
3,GPGFHAGTSALWRHLRSAHRREYE,2.42
4,GPGFHAGTSALWRHLRSAHRREDE,1.95
5,GPGFHAGTSALWRHLRSAHRREEE,2.07
6,GPGFHAGTSALWRHLRSAHRRESE,2.36
7,GPGFHAGTSALWRHLRSAHRRERE,2.91
8,GPGFHAGTSALWRHLRSAHRRELF,2.32
9,GPGFHAGTSALWRHLRSAHRRELC,1.65
10,GPGFHAGTSALWRHLRSAHRRELN,1.91
11,GPGFHAGTSALWRHLRSAHRRELA,2.02
12,GPGFHAGTSALWRHLRSAHRRELL,2
13,GPGFHAGTSALWRHLRSAHRRELM,2.78
14,GPGFHAGTSALWRHLRSAHRRELP,1.93
15,GPGFHAGTSALWRHLRSAHRRELI,2.65
16,GPGFHAGTSALWRHLRSAHRRELW,1.84
17,GPGFHAGTSALWRHLRSAHRRELD,1.94
18,GPGFHAGTSALWRHLRSAHRRELY,2.42
19,GPGFHAGTSALWRHLRSAHRRELR,2.96
20,GPGFHAGTSALWRHLRSAHRRELQ,2.51
21,GPGFHAGTSALWRHLRSAHRRELS,1.97
22,GPGFHAGTSALWRHLRSAHRRELG,1.76
23,GPGFHAGTSALWRHLRSAHRRELV,2.11
24,GPGFHAGTSALWRHLRSAHRRELK,3.2

row,Variant,protein stability index
1,GPGFHAGTSALWRHLRSAHRRELT,2.35
2,GPGFHAGTSALWRHLRSAHRRELH,1.85
3,GPGFHAGTSALWRHLRSAGRRELE,2.14
4,GPGFHAGTSALWRHLRSASRRELE,2.29
5,GPGFHAGTSALWRHLRSAERRELE,2.21
6,GPGFHAGTSALWRHLRSAYRRELE,2.5
7,GPGFHAGTSALWRHLRSANRRELE,1.58
8,GPGFHAGTSALWRHLRSARRRELE,2.68
9,GPGFHAGTSALWRHLRSADRRELE,2.03
10,GPGFHAGTSALWRHLRSAFRRELE,2.84
11,GPGFHAGTSALWRHLRSAMRRELE,1.73
12,GPGFHAGTSALWRHLRSATRRELE,2.14
13,GPGFHAGTSALWRHLRSAARRELE,2.74
14,GPGFHAGTSALWRHLRSAPRRELE,2.11
15,GPGFHAGTSALWRHLRSAKRRELE,2.54
16,GPGFHAGTSALWRHLRSAWRRELE,2.14
17,GPGFHAGTSALWRHLRSACRRELE,2.7
18,GPGFHAGTSALWRHLRSALRRELE,2.53
19,GPGFHAGTSALWRHLRSAVRRELE,3.03
20,GPGFHAGTSALWRHLRSAIRRELE,2.3
21,GPGFHAGTSALWRHLRSAQRRELE,2.2
